Test results taken from patent US20230272055A1 (Incyte, published 2023).

B1: anti-mutCALR antibody clone 8 (antibody, human IgG1, lambda, V domains shown)
VH: QVQLVQSGAEVKKPGSSVKVSCKVSGYTLTELSMQWVRQAPGKGLEWMGGFDPDDGETMYAEKFQGRLTVTEDTSTDTVYMELRSLTSEDTALYFCATSPGYDFFDYWGQGTLVTVSS
VL: SYELTQPPSVSVAPGQTARITCGGNNIGSKSVHWYQQKPGQAPVLVVYDDSDRPSGIPERFSGSNSGRTATLTISRVEAGDEADYHCQVWDSSSDHLVFGGGTKLTVLG
notes: human IgG1; group 1
B2: anti-mutCALR antibody clone 9 (antibody, human IgG1, lambda, V domains shown)
VH: EVQLVQSGAEVKKPGASVKVSCKVSGYTLTELSMQWVRQAPGKGLEWMGGFDPDDGETMYAEKFQGRLTVTEDTSTDTVYMELRSLTSEDTALYFCATSPGYDFFDYWGQGTLVTVSS
VL: SYVLTQPPSVSVAPGQTARIPCGGNNIGSKSVHWYQQKPGQAPVLVVYDDRDRPSGIPERFSGSNSGNTATLTINRVEAGDEADYYCQVWDSSNDLLIFGGGTKLTVLG
notes: human IgG1; group 1
B3: anti-mutCALR antibody clone 10 (antibody, human IgG1, lambda, V domains shown)
VH: EVQLVQSGAEVKKPGASVKVSCKVSGYTLTELSMQWVRQAPGKGLEWMGGFDPDDGETMYAEKFQGRLTVTEDTSTDTVYMELRSLTSEDTALYFCATSPGYDFFDYWGQGTLVTVSS
VL: SYELTQPPSVSVAPGQTARIPCGGNNIGSEGVHWYQQKPGQAPVLVVYDDSDRPSGIPERFSGSNSGNTATLTISRVEAGDEADYYCQVWDSSNDLLIFGGGTKLTVLG
notes: human IgG1; group 1
B4: anti-mutCALR antibody clone 12 (antibody, human IgG1, lambda, V domains shown)
VH: EVQLVQSGAEVKKPGASVKVSCKVSGYTLTELSMQWVRQAPGKGLEWMGGFDPDGGETMYAEKFQGRLTVTEDTSTDTVYMELRSLTSEDTALYFCATSPGYDFFDYWGQGTLVTVSS
VL: SYVLTQPPSVSVAPGQTARVSCGGNNIGSKSVNWYRQKPGQAPVLVIYDDSDRPSGIPERFSGSNSGNTATLTINRVEAGDEADYYCQVWDSSNDLLIFGGGTKLTVLG
notes: human IgG1; group 1
B5: anti-mutCALR antibody clone 13 (antibody, human IgG1, lambda, V domains shown)
VH: QVQLVQSGAEVKKPGASVKVSCKVSGYTLTELSMQWVRQAPGKGLEWMGGFDPDDGETMYAEKFQGRLTVTEDTSTDTVYMELRSLTSEDTALYFCATSPGYDFFDYWGQGTLVTVSS
VL: not shown
notes: human IgG1; group 1
B6: anti-mutCALR antibody clone 15 (antibody, human IgG1, lambda)
heavy: not shown
light: SYELTQPPSVSVAPGKTARITCGGDNIGSKSVHWYQQKPGQAPVLVVYDDSDRPSGIPERFSGSNSGNTATLTINRVEAGDEADYYCQVWDSSNDLLIFGGGTKLTVLGQPKAAPSVTLFPPSSEELQANKATLVCLISDFYPGAVTVAWKADSSPVKAGVETTTPSKQSNNKYAASSYLSLTPEQWKSHRSYSCQVTHEGSTVEKTVAPTECS
notes: human IgG1; group 1
B7: anti-mutCALR antibody clone 16 (antibody, human IgG1, lambda, V domains shown)
VH: EVQLVQSGAEVKKPGASVKVSCKVSGYTLTELSMQWVRQAPGKGLEWMGGFDPDDGETMYAEKFQGRLTVTEDTSTDTVYMELRSLTSEDTALYFCATSPGYDFFDYWGQGTLVTVSS
VL: SYVLTQPPSVSVAPGKTARITCGGNNTGSKSVHWYQQKPGQAPVLVVYDDSDRPSGIPERFSGSNSGNTATLTINRVEAGDEADYYCQVWDSSNDLLIFGGGTKLTVLG
notes: human IgG1; group 1
B8: anti-mutCALR antibody clone 17 (antibody, human IgG1, lambda)
heavy: not shown
light: SYVLTQPPSVSVAPGQTARITCGGSDIGDEIVHWYQQKPGQAPVLVVYDDSDRPSGIPERFSGSNSGNTATLTISRAQAGDEADYYCQVWDSSSDHLIFGGGTKLTVLGQPKAAPSVTLFPPSSEELQANKATLVCLISDFYPGAVTVAWKADSSPVKAGVETTTPSKQSNNKYAASSYLSLTPEQWKSHRSYSCQVTHEGSTVEKTVAPTECS
notes: human IgG1; group 1
B9: anti-mutCALR antibody clone 18 (antibody, human IgG1, lambda, V domains shown)
VH: EVQLVQSGAEVKKPGASVKVSCKVSGYTLTELSMQWVRQAPGKGLEWMGGFDPDDGETMYAEKFQGRLTVTEDTSTDTVYMELRSLTSEDTALYFCATSPGYDFFDYWGQGTLVTVSS
VL: SYVLTQPPSVSVAPGKTARITCGGNNIGSKSVHWYQQKPGQAPVLVVYDDSDRPLGIPERFSGSNSGNTATLTINRVEAGDEADYYCQVWDSSNDLLIFGGGTKLTVLG
notes: human IgG1; group 1
B10: anti-mutCALR antibody clone 19 (antibody, human IgG1, lambda, V domains shown)
VH: EVQLVQSGAEVKKPGASVKVSCKVSGYTLTELSMQWVRQAPGKGLEWMGGFDPDDGETMYAEKFQGRLTVTEDTPTDTVYMELRSLTSEDTALYFCATSPGYDFFDYWGQGTLVTVSS
VL: SYVLTQPLSVSVALGQTARITCGGSNIGDIRVHWYQQKPGQAPVLVVYDDSDRPSGIPERFSGSNSGNTATLTINRVEAGDEADYYCQVWDSSNDLLIFGGGTKLTVLG
notes: human IgG1; group 1
B11: anti-mutCALR antibody clone 20 (antibody, human IgG1, lambda, V domains shown)
VH: EVQLVQSGAEVKKPGASVKVSCKVSGYTLTELSMQWVRQAPGKGLEWMGGFDPDDGETMYAEKFQGRLTVTEDTSTDTVYMELRSLTSEDTALYFCATSPGYDFFDYWGQGTLVTVSS
VL: SYVLTQPPSVSVAPGKTARITCGGNNIGSKGVHWYQQKPGQAPVLVVYDDSDRPSGIPERFSGSNSGNTATLTINRVEAGDEADYYCQVWDSSNDLLIFGGGTKLTVLG
notes: human IgG1; group 1
B12: anti-mutCALR antibody clone 21 (antibody, human IgG1, lambda, V domains shown)
VH: EVQLVQSGAEVKKPGASVKVSCEVSGYTLTELSMQWVRQAPGKGLEWMGGFDPDDGETMYAEKFQGRLTVTEDTSTDTVYMELRSLTSEDTALYFCATSPGYDFFDYWGQGTLVTVSS
VL: SYVLTQPPSVSVAPGQTARVSCGGNNIGSKSVNWYRQKPGQAPVLVIYDDSDRPSGIPERFSGSNSGNTATLTISRVEAGDEADYYCQVWDSSNDLLIFGGGTKLTVLG
notes: human IgG1; group 1
B13: anti-mutCALR antibody clone 22 (antibody, human IgG1, lambda, V domains shown)
VH: EVQLVQSGAEVKKPGASVKVSCKVSGYTLTELSMQWVRQAPGKGLEWMGGFDPDDGETMYAEKFQGRLTVTEDTSTDTVYMELRSLTSEDTALYFCATSPGYDFFDYWGQGTLVTVSS
VL: SYVLTQPPSVSVAPGKTARITCGGNNIGSKNVHWYQQKPGQAPVLVVYDDSDRPSGIPERFSGSNSGNTATLTINRVEAGDEADYYCQVWDSSNDLLIFGGGTKLTVLG
notes: human IgG1; group 1
B14: anti-mutCALR antibody clone 23 (antibody, human IgG1, lambda, V domains shown)
VH: EVQLVQSGAEVKKPGASVKVSCKVSGYTLTELSMQWVRQAPGKGLEWMGGFDPDDGETMYAEKFQGRLTVTEDTSTDTVYMELRSLTSEDTALYFCATSPGYDFFDYWGQGTLVTVSS
VL: SYVLTQPPSVSVAPGQTARITCGGNNIGIKSVHWYQQKPGQAPVLVVYDDSDRPSGIPERFSGSNSGNTATLTINRVEAGDEADYYCQVWDSSNDLLIFGGGTKLTVLG
notes: human IgG1; group 1
B15: anti-mutCALR antibody clone 24 (antibody, human IgG1, lambda, V domains shown)
VH: EVQLVQSGAEVKKPGASVKVSCKVSGYTLTELSMQWVRQAPGKGLEWMGGFDPDDGETMYAEKLQGRLTVTEDTSTDTVYMELRSLTSEDTALYFCATSPGYDFFDYWGQGTLVTVSS
VL: SYVLTQPPSVSVAPGKTARITCGGNNIGSKSVHWYQQKPGQAPVLVVYDDSDRPSGIPERFSGSNSGNTATLTINRVEAGDEADYYCQVWDSSNDLLIFGGGTKLTVLG
notes: human IgG1; group 1
B16: anti-mutCALR antibody clone 25 (antibody, human IgG1, lambda, V domains shown)
VH: EVQLVQSGAEVKKPGASVKVSCKVSGYTLTELSMQWVRQAPGKGLEWMGGFDPDDGETMYAEKFQGRLTVTEDTSTDTVYMELRSLTSEDTALYFCATSPGYDFFDYWGQGTLVTVSS
VL: SYELTQPPSVAVAPGQTARITCGGNNIGRKAVHWYQQKPGQAPVLVVYDDSDRPSGIPERFSGSNSGNTATLTINRVEAGDEADYYCQVWDSSNDLLIFGGGTKLTVLG
notes: human IgG1; group 1
B17: anti-mutCALR antibody clone 26 (antibody, human IgG1, lambda, V domains shown)
VH: EVQLVQSGAEVKKPGASVKVSCKVSGYTLTELSMQWVRQAPGKGLEWMGGFDPDDGETMYAEKFQGRLTVTEDTSTDTVYMELRSLTSEDTALYFCATSPGYDFFDYWGQGTLVTVSS
VL: SYVLTQPPSVSVAPGQTARITCGGNNIGSKSVHWYQQKPGQAPVLVVYDDSDRPSGIPERFSGSNSGNTATLTISRVEAGDEADYYCQVWDSSIDHLIFGGGTKVTVLG
notes: human IgG1; group 1
B18: anti-mutCALR antibody clone 27 (antibody, human IgG1, lambda, V domains shown)
VH: EVQLVQSGAEVKKPGASVKVSCKVSGYTLTELSMQWVRQAPGKGLEWMGGFDPDDGETMYAEKFQGRLTVTEDTSTDTVYMELRSLTSEDTALYFCATSPGYDFFDYWGQGTLVTVSS
VL: SYVLTQPPSVSVAPGQTARITCGGNNIGIKSVHWYQQKPGQAPVLVVYDDRDRPSGIPERFSGSNSGNTATLTINRVEAGDEADYYCQVWDSSNDLLIFGGGTKLTVLG
notes: human IgG1; group 1
B19: anti-mutCALR antibody clone 28 (antibody, human IgG1, lambda, V domains shown)
VH: EVQLVQSGAEVKKPGASVKVSCKVSGYTLTELSMQWVRQAPGKGLEWMGGFDPDDGETMYAEKFQGRLTVTEDTSTDTVYMELRSLTSEDTALYFCATSPGYDFFDYWGQGTLVTVSS
VL: SYELTQPPSVSVAPGQTARITCGGNNIGSKSVHWYQQKPGQAPVLVVYDDSDRPSGIPERFSGSNSGNTATLTISRVEAGDEADYYCQVWDADSDQLIFGGGTKLTVLG
notes: human IgG1; group 1
B20: anti-mutCALR antibody clone 29 (antibody, human IgG1, lambda, V domains shown)
VH: EVQLVQSGAEVKKPGASVKVSCKVSGYTLTELSMQWVRQAPGKGLEWMGGFDPDDGETMYAEKFQGRLTVTEDTSTDTVYMELRSLTSEDTALYFCATSPGYDFFDYWGQGTLVTVSS
VL: SYVLTQPPSVSVAPGKTARITCGGNNIGSKSVHWYQQKPGQAPVLVVYDDSDRPSGIPERFSGSNSGNTATLTISRVEAGDEADYYCQVWDSSSDLLIFGGGAKLTVLG
notes: human IgG1; group 1

Each binder was assayed against MBP protein (UniProt P0AEX9 27-392 = MBP) (assay: SPR (Biacore 8K), antibody captured on anti-human IgG (Fc), MBP injected).
Protocol: Experiment 1: Recombinant MBP-mutCALR Type 1 fusion protein was custom made at Cepter (cepterbiopartners.com). Data for the interaction of antibodies with recombinant MBP-mutCALR Type 1 fusion protein were collected at 25° C. on a Biacore 8K instrument (Cytiva, Marlborough, Mass.), and all reagents were obtained from Cytiva unless otherwise specified. The experiments were conducted using Tris-buffered saline (pH 7.2), 0.005% Surfactant P20, 1 mM CaCl₂) as running buffer. To prepare the capture surfaces, anti-human IgG (Fc) antibodies (Product #29234600) was amine-coupled onto a CM4 chip (Product #BR100534) under standard conditions using an Amine Coupling Kit (Product #BR100050). […] The kinetics parameters were obtained by applying 1:1 binding model to fit the data from multiple-cycle injection experiments using Biacore Insight Evaluation software.

Binder	binding result
B1	no binding (tested: 250 nM)
B2	no binding (tested: 250 nM)
B3	no binding (tested: 250 nM)
B4	no binding (tested: 250 nM)
B5	no binding (tested: 250 nM)
B6	no binding (tested: 250 nM)
B7	no binding (tested: 250 nM)
B8	no binding (tested: 250 nM)
B9	no binding (tested: 250 nM)
B10	no binding (tested: 250 nM)
B11	no binding (tested: 250 nM)
B12	no binding (tested: 250 nM)
B13	no binding (tested: 250 nM)
B14	no binding (tested: 250 nM)
B15	no binding (tested: 250 nM)
B16	no binding (tested: 250 nM)
B17	no binding (tested: 250 nM)
B18	no binding (tested: 250 nM)
B19	no binding (tested: 250 nM)
B20	no binding (tested: 250 nM)
